The values below are quoted from earlier work in publication PMC7561359.

The series concerns the target IFNAR1 (Homo sapiens) (UniProt P17181).
Chain of UniProt P17181 (P17181 28-436): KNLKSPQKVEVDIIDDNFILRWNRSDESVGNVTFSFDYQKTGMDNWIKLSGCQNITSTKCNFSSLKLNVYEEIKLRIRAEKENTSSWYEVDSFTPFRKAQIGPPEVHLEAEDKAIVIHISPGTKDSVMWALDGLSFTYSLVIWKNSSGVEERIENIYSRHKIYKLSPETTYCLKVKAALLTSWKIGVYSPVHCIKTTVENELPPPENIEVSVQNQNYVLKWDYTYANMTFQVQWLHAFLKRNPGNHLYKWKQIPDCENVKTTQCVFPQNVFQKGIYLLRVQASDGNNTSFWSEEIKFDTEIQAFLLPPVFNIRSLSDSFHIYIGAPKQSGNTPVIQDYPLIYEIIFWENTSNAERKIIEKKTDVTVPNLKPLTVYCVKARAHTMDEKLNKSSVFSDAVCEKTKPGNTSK

In the case of IFNβ (from UniProt P01574), the Kd was 0.1 µM.

Usually Kd stands for the free concentration of one partner at which half of the binding sites on the other are occupied at equilibrium, for simple one-to-one binding.
